Data reported in US11278600B2, “Human alpha-galactosidase variants” (Codexis, Inc., priority 2014, dated 2022).
Substitutions are numbered along the chain they refer to.

B1: 237 (protein)
chain: LDNGLARTPTMGWLHWERFMCNLDCQEEPDSCISEKLFMEMAELMVSEGWKDAGYEYLCIDDCWMAPQRDSEGRLQADPQRFPHGIRQLANYVHSKGLKLGIYADVGNKTCAGFPGSFGYYDIDAQTFADWGVDLLKFDGCYCDSLENLADGYKHMSLALNRTGRSIVYSCEWPLYMWPFQKPNYTEIRQYCNHWRNFADIDDSWASIKSILDWTSRNQERIVDVAGPGGWNDPDMLVIGNFGLSWNQQVTQMALWAIMAAPLFMSNDLRHISPQAKALLQDKDVIAINQDPLGKQGYQLRKGDNFEVWERPLSGDAWAVAMINRQEIGGPRSYTIPVASLGKGVACNPGCFITQLLPVKRKLGFYDWDSRLRSHINPTGTVLLQLENTMQMSLKDLL
modifications: Synthetic Polypeptide sequence of Variant No. 237 of mature Human GLA
B2: 240 (protein)
chain: B1 chain with R217F, L269I, K302Q, D316L, P337A, P349L, G350A, D367E, D369T, R373K
modifications: Synthetic Polypeptide sequence of Variant No. 240 of mature Human GLA
B3: 243 (protein)
chain: B1 chain with R217F, N247D, D316L, K343G, D367E, D369T
modifications: Synthetic Polypeptide sequence of Variant No. 243 of mature Human GLA
B4: 244 (protein)
chain: B1 chain with R217F, N247D, P337A, D367E, D369T
modifications: Synthetic Polypeptide sequence of Variant No. 244 of mature Human GLA
B5: 238 (protein)
chain: LDNGLARTPTMGWLHWERFMCNLDCQEEPDSCISEKLFMEMAELMVSEGWKDAGYEYLCIDDCWMAPQRDSEGRLQADPQRFPHGIRQLANYVHSKGLKLGIYADVGNKTCAGFPGSFGYYDIDAQTFADWGVDLLKFDGCYCDSLENLADGYKHMSLALNRTGRSIVYSCEWPLYMWPFQKPNYTEIRQYCNHWRNFADIDDSWASVKSILDWTSFNQERIVDVAGPGGWNDPDMLVIGNFGLSWNQQVTQMALWAIMAAPLFMSNDLRHISPQAKALLQDKDVIAINQDPLGKQGYQLRQGDNFEVWERPLSGLAWAVAVINRQEIGGPRSYTIAVASLGGGVACNPACFITQLLPVKRKLGLYEWTSRLKSHVNPTGTVLLQLENTMQMSLKDLL
modifications: Synthetic Polypeptide sequence of Variant No. 238 of mature Human GLA
B6: 241 (protein)
chain: B5 chain with V208I, N247D, G343D, L365F
modifications: Synthetic Polypeptide sequence of Variant No. 241 of mature Human GLA
B7: 239 (protein)
chain: B5 chain with R221K, N247D, V322I, G343D
modifications: Synthetic Polypeptide sequence of Variant No. 239 of mature Human GLA
B8: 242 (protein)
chain: B5 chain with V208I, N247D, V376I
modifications: Synthetic Polypeptide sequence of Variant No. 242 of mature Human GLA
B9: 659 (protein)
chain: LDNGLARTPTMGWLHWERFMCNLDCQEEPDSCISEKLFMEMAERMVTEGWKDAGYEYLCIDDCLMAPQRDSEGRLQADPQRFPHGIRQLANHVHSKGLKLGIYADVGNKTCAGFPGSFGYYDIDAQTFADWGVDLLKFDGCYCDSLENLADGYKHMSLALNRTGRPIVYSCEWPLYMWPFQKPNYTEIRQYCNHWRNFADIDDSWASIKSILDWTSRNQERIVDVAGPGGWNDPDMLVIGNFGLSWDQQVTQMALWAIMAAPLFMSNDLRAISPQAKALLQDKDVIAINQDPLGKQGYQLRKGDNFEVWERPLSGDAWAVAIINRQEIGGPRSYTIPVASLGKGVACNPACFITQLLPVKRQLGFYNWTSRLKSHINPTGTVLLQLENTMQTSLKDLL
modifications: Synthetic Polypeptide sequence of Variant No. 659 of mature Human GLA

Experiments:
Type in all cases: biochemical
[1] = HTP-analysis of yeast culture supernatants, no challenge (MUGal hydrolysis)
Summary of the method: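 GLA variants were expressed in INVSc1 yeast grown in SD-Ura broth with glucose at 30° C., and culture supernatants were collected after 66-84 h. Supernatant was mixed with McIlvaine buffer pH 4.8 and MUGal (2 mM stock) in 50 mM citrate, 200 mM KCl, pH 4.6, incubated at 37° C. for 30-180 minutes, then quenched with sodium carbonate.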

[2] = HTP-analysis of supernatants pretreated with base (MUGal hydrolysis); settings: for Relative Activity of GLA Variants After Challenge at pH 7.6: activity of the variant/activity of Rd2BB (SEQ ID NO: 10), yeast culture supernatant
Summary of the method: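 Supernatants from INVSc1 yeast expressing GLA variants (SD-Ura, 66-84 h, 30° C) were mixed with McIlvaine buffer pH 7.0-8.2 or 200 mM sodium bicarbonate pH 9.1-9.7 and held 1-18 h at 37° C. Residual activity was then measured on MUGal at pH 4.8/4.3, 37° C, 30-180 min, by fluorescence (Ex 355/Em 448 nm).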

[3] = HTP-analysis of supernatants pretreated with bovine serum (MUGal hydrolysis); settings: activity of the variant/activity of Rd2BB (SEQ ID NO: 10), yeast culture supernatant
Description: Yeast (INVSc1) cells transformed with vectors expressing GLA and GLA variants using the lithium acetate method were selected on SD-Ura agar plates. After 72 h incubation at 30° C. colonies were placed into the wells of Axygen® 1.1 ml 96-well deep well plates filled with 200 μl/well SD-Ura broth (2 g/L SD-Ura, 6.8 g/L yeast nitrogen base without amino acids [Sigma Aldrich]), 3.06 g/L sodium dihydrogen phosphate, 0.804 g/L disodium hydrogen phosphate, pH 6.0 supplemented with 6% glucose. The cells were allowed to grow for 20-24 hours in a Kuhner shaker (250 rpm, 30° C., and 85% relative humidity). Overnight culture samples (20 μL) were transferred into Corning Costar® 96-well deep plates filled with 380 µL of SD-ura broth supplemented with 2% glucose. The plates were incubated for 66-84 h in a Kuhner shaker (250 rpm, 30° C., and 85% relative humidity). The cells were then pelleted (4000 rpm×20 min), and the supernatants isolated and stored at 4° C. prior to analysis.
GLA variants were challenged with bovine serum to simulate the conditions the variants encounter following infusion into a patient. First, 20 μL of yeast culture supernatant and 80 μL, of bovine serum were added to the wells of a 96-well round bottom plate. The plates were sealed and incubated at 37° C. for 1 h. For the assay, 50 μL of serum-challenged sample was mixed with 25 μL, of 1 M citrate buffer pH 4.3 and 25 μL, of 4 mM MUGal in McIlvaine buffer pH 4.8. The reactions were mixed briefly and incubated at 37° C. for 180 minutes, prior to quenching with 100 μL, of 1 M sodium carbonate. Hydrolysis was analyzed using a SpectraMax® M2 microplate reader monitoring fluorescence (Ex. 355 nm, Em. 448 nm).

[4] = HTP-analysis of supernatants pretreated with acid (MUGal hydrolysis); settings: for Relative Activity of GLA Variants After Challenge at pH 4.2: activity of the variant/activity of Rd2BB (SEQ ID NO: 10), yeast culture supernatant
Summary of the method: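 MUGal hydrolysis was tracked by fluorescence (Ex 355 nm, Em 448 nm) after a 30-180 min reaction at 37° C. in pH 4.8 McIlvaine/citrate buffer, stopped with 1 M sodium carbonate. Beforehand, yeast (INVSc1) culture supernatants carrying GLA variants were held 1-3 h at 37° C. in acidic McIlvaine buffer, pH 3.3-4.3.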

[5] = activity of the variant/activity of Rd2BB (SEQ ID NO: 10), yeast culture supernatant

| Molecule | Relative Activity of GLA Variants After No Challenge (NC) [1, 5] | Relative Activity of GLA Variants After Challenge at pH 7.6 [2] | Relative Activity of GLA Variants After Challenge with Serum [3] | Relative Activity of GLA Variants After Challenge at pH 4.2 [4] | Relative Activity of GLA Variants After No Challenge (NC) ([1]; activity of the variant/activity of Rd7BB (SEQ ID NO: 44)) | Relative Activity of GLA Variants After Challenge at pH 7.5 ([2]; activity of the variant/activity of Rd7BB (SEQ ID NO: 44), challenge at pH 7.5) | Relative Activity of GLA Variants After Challenge at pH 3.5 ([4]; activity of the variant/activity of Rd7BB (SEQ ID NO: 44), challenge at pH 3.5) |
| --- | --- | --- | --- | --- | --- | --- | --- |
| B1 | +++ (+++ = >2.5 relative activity over Rd2BB (SEQ ID NO: 10)) | +++ (+++ = >2.5 relative activity over Rd2BB (SEQ ID NO: 10)) | +++ (+++ = >2.5 relative activity over Rd2BB (SEQ ID NO: 10)) | +++ (+++ = >2.5 relative activity over Rd2BB (SEQ ID NO: 10)) |  |  |  |
| B2 | − (− = <0.5 relative activity over Rd2BB (SEQ ID NO: 10)) | + (+ = 0.5 to 1.5 relative activity over Rd2BB (SEQ ID NO: 10)) | + (+ = 0.5 to 1.5 relative activity over Rd2BB (SEQ ID NO: 10)) | + (+ = 0.5 to 1.5 relative activity over Rd2BB (SEQ ID NO: 10)) |  |  |  |
| B3 | +++ (+++ = >2.5 relative activity over Rd2BB (SEQ ID NO: 10)) | +++ (+++ = >2.5 relative activity over Rd2BB (SEQ ID NO: 10)) | +++ (+++ = >2.5 relative activity over Rd2BB (SEQ ID NO: 10)) | +++ (+++ = >2.5 relative activity over Rd2BB (SEQ ID NO: 10)) |  |  |  |
| B4 | +++ (+++ = >2.5 relative activity over Rd2BB (SEQ ID NO: 10)) | +++ (+++ = >2.5 relative activity over Rd2BB (SEQ ID NO: 10)) | +++ (+++ = >2.5 relative activity over Rd2BB (SEQ ID NO: 10)) | +++ (+++ = >2.5 relative activity over Rd2BB (SEQ ID NO: 10)) |  |  |  |
| B5 | ++ (++ = 1.5 to 2.5 relative activity over Rd2BB (SEQ ID NO: 10)) | +++ (+++ = >2.5 relative activity over Rd2BB (SEQ ID NO: 10)) | ++ (++ = 1.5 to 2.5 relative activity over Rd2BB (SEQ ID NO: 10)) | +++ (+++ = >2.5 relative activity over Rd2BB (SEQ ID NO: 10)) |  |  |  |
| B6 | ++ (++ = 1.5 to 2.5 relative activity over Rd2BB (SEQ ID NO: 10)) | +++ (+++ = >2.5 relative activity over Rd2BB (SEQ ID NO: 10)) | ++ (++ = 1.5 to 2.5 relative activity over Rd2BB (SEQ ID NO: 10)) | +++ (+++ = >2.5 relative activity over Rd2BB (SEQ ID NO: 10)) |  |  |  |
| B7 | +++ (+++ = >2.5 relative activity over Rd2BB (SEQ ID NO: 10)) | +++ (+++ = >2.5 relative activity over Rd2BB (SEQ ID NO: 10)) | ++ (++ = 1.5 to 2.5 relative activity over Rd2BB (SEQ ID NO: 10)) | +++ (+++ = >2.5 relative activity over Rd2BB (SEQ ID NO: 10)) |  |  |  |
| B8 | +++ (+++ = >2.5 relative activity over Rd2BB (SEQ ID NO: 10)) | +++ (+++ = >2.5 relative activity over Rd2BB (SEQ ID NO: 10)) | +++ (+++ = >2.5 relative activity over Rd2BB (SEQ ID NO: 10)) | +++ (+++ = >2.5 relative activity over Rd2BB (SEQ ID NO: 10)) |  |  |  |
| B9 |  |  |  |  | − (<0.5 relative activity to Rd7BB (SEQ ID NO: 44)) | − (<0.5 relative activity to Rd7BB (SEQ ID NO: 44)) | − (<0.5 relative activity to Rd7BB (SEQ ID NO: 44)) |
